Publication PMC12700559, “Structural basis for simvastatin-induced skeletal muscle weakness associated with type 1 ryanodine receptor T4709M mutation” (The Journal of Clinical Investigation, 2025)

Biological target: type 1 ryanodine receptor (RyR1), endogenous channel from mouse skeletal muscle (mouse (endogenous in mouse skeletal muscle)) (UniProt E9PZQ0)
Experiment: cryo-EM structure; endogenous RyR1 purified from mouse skeletal muscle, ~15 uM protomer, in CHAPS/DOPC buffer; with 5 mM EGTA only or with 10 mM ATP, 5 mM caffeine, 30 uM free Ca2+, with or without 10 mM simvastatin lactone; C4 symmetry imposed

Sequence of type 1 ryanodine receptor (RyR1), endogenous channel from mouse skeletal muscle, E9PZQ0 1-5035 (natural protein) (E9PZQ0 whole entry): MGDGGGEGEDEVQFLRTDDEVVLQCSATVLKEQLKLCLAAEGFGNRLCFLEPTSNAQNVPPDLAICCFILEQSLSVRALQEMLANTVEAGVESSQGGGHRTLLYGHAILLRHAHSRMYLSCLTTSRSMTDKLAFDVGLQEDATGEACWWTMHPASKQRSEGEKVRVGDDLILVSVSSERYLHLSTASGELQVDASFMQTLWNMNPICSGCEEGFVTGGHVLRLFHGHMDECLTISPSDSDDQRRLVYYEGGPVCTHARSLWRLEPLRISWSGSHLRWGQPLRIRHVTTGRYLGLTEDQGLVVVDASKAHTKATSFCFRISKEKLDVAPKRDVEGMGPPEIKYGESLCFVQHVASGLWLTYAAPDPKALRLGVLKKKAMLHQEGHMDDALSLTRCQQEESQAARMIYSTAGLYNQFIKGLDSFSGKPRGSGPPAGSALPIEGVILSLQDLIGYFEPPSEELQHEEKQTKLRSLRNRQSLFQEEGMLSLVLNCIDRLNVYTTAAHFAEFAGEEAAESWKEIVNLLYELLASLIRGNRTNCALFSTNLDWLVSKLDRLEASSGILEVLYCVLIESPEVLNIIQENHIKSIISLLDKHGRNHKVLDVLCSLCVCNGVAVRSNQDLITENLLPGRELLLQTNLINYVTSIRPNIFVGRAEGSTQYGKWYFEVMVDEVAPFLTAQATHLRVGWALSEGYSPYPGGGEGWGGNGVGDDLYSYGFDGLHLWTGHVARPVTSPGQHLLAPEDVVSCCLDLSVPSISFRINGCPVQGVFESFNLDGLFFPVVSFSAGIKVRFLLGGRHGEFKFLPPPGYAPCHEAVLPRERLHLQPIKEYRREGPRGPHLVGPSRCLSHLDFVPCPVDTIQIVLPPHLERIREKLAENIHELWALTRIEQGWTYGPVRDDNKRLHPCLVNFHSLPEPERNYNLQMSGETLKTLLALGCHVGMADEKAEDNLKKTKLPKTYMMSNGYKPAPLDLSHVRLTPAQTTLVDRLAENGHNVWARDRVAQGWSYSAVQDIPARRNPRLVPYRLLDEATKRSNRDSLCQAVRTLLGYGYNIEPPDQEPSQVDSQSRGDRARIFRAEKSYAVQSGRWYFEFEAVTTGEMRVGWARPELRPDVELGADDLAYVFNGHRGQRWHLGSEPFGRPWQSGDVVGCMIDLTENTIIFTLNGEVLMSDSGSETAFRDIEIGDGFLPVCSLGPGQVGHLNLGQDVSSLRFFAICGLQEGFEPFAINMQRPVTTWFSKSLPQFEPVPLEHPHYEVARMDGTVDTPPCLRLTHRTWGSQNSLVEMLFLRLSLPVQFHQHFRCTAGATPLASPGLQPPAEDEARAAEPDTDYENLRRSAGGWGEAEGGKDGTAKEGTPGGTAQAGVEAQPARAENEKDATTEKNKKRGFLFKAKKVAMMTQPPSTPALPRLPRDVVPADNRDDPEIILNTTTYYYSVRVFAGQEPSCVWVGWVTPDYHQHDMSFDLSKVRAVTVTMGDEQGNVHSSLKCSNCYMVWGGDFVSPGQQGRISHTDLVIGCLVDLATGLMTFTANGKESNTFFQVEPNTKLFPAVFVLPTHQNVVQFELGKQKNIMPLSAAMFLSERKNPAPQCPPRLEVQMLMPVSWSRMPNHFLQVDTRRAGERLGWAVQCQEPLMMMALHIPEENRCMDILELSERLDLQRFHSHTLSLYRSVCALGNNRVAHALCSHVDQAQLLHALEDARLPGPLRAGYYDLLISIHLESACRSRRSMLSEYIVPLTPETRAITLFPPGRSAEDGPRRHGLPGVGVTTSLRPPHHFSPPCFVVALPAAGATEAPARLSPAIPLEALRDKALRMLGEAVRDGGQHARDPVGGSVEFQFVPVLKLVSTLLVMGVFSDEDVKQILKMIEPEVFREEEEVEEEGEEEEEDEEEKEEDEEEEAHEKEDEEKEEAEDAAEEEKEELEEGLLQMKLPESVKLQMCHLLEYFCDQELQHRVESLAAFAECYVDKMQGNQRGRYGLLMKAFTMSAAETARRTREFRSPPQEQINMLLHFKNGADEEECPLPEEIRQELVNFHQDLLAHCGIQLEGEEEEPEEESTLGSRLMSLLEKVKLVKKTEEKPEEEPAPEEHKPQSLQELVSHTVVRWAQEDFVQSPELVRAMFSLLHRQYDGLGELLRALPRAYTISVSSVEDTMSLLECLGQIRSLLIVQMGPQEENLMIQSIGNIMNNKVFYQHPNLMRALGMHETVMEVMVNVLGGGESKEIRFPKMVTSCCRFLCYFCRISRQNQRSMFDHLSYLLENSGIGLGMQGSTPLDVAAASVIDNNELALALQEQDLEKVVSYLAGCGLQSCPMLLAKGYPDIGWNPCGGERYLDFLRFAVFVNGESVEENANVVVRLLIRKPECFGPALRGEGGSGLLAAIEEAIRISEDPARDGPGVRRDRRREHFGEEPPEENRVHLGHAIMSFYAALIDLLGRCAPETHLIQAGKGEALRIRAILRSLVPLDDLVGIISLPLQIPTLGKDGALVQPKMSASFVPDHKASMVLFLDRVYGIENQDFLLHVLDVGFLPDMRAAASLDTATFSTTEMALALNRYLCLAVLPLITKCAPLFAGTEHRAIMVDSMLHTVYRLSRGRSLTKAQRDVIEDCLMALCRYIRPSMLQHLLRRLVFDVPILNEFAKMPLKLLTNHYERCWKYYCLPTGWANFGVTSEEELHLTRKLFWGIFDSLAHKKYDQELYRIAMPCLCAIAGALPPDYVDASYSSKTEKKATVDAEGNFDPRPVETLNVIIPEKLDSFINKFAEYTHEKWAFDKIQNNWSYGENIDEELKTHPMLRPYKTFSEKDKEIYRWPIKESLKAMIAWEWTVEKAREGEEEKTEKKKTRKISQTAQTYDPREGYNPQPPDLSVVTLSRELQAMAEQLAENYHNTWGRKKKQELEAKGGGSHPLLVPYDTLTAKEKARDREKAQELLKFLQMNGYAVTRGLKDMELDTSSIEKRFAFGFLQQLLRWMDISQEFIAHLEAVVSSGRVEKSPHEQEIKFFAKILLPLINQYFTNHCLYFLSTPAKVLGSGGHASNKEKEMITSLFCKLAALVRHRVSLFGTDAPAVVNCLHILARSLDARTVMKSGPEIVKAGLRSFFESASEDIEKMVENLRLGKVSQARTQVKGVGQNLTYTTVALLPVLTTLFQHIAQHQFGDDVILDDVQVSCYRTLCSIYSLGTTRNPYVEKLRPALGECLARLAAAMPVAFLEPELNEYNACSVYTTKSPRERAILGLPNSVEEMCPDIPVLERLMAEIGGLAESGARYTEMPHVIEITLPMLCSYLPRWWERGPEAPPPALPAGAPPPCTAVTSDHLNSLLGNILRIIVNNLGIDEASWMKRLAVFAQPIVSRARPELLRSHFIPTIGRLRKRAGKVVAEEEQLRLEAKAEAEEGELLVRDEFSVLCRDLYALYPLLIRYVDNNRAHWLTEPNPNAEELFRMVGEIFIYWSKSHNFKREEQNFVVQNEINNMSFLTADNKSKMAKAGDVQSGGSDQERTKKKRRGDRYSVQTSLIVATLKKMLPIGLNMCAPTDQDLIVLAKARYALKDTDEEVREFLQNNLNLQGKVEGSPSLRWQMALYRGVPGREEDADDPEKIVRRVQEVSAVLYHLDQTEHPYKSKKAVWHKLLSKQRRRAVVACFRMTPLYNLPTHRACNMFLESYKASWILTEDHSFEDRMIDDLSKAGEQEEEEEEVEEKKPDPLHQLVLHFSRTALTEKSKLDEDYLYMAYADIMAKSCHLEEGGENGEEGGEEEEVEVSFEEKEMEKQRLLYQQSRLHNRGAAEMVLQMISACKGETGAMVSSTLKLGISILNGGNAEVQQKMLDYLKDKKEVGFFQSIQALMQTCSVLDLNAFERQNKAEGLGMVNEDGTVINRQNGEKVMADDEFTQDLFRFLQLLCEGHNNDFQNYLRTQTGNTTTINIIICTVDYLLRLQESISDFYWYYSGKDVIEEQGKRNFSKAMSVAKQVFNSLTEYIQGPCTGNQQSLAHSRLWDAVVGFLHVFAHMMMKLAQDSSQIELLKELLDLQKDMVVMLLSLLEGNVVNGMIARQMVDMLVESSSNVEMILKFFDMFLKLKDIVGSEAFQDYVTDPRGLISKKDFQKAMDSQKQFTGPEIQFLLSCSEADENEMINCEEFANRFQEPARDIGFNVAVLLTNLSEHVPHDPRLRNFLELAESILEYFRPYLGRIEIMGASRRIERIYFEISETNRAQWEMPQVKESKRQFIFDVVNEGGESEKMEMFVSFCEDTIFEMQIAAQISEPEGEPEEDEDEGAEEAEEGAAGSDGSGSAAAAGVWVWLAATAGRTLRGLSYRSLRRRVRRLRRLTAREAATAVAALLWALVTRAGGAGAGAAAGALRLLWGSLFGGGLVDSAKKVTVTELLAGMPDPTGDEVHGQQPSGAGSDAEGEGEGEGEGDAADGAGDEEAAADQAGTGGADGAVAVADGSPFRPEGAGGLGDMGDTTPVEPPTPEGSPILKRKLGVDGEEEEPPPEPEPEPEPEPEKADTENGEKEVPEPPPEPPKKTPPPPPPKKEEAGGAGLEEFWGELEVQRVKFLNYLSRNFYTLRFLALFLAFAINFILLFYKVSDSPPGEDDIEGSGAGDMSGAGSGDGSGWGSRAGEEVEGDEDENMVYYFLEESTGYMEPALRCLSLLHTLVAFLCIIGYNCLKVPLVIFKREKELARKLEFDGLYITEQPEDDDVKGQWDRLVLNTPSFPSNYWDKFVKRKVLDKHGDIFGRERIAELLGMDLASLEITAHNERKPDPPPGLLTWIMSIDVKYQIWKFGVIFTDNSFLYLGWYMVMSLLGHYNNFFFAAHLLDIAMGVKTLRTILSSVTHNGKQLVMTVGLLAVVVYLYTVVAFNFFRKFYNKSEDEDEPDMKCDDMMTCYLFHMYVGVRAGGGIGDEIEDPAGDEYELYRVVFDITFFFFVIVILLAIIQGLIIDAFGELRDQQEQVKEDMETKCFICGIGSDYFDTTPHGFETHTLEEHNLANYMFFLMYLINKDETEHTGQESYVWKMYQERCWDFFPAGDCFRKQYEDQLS

stoichiometry N: 4
Substance: type 1 ryanodine receptor (RyR1), endogenous channel from mouse skeletal muscle, E9PZQ0 1-5035 (natural protein)
